Assay results as given in PMC11073785, “YeeD is an essential partner for YeeE-mediated thiosulfate uptake in bacteria and regulates thiosulfate ion decomposition” (PLOS Biology, 2024).

B1: Spirochaeta thermophila YeeE [Spirochaeta thermophila] / Spirochaeta thermophila YeeD (WT), His6-tagged [Spirochaeta thermophila] (parent complex)
chain 1: MIWTGLLVGFLFGIVLQRGRICFNSAFRDVLLFKDNYLFKLAVFTLALEMILFVLLSQVGLMQMNPKPLNLVGNIIGGFVFGLGMVLAGGCASGVTYRVGEGLTTAWFAALFYGLGAYATKSGAFSWWLSWVGQFKSPLSVEESAYYVKGAGPTISSVLGLNPWIPALVIAALFILWAFGTKTTSRETKFNWKIASVCLALVAGLGFITSTLSGRKYGLGITGGWINLFQGFLTNSPLNWEGLEIVGIILGAGVAAAVAGEFKLRMPKNPVTYLQVGIGGLLMGIGAVTAGGCNIGHFLTGVPQLALSSWLASIFFILGNWTMAWILF
chain 2: MANYQVSKEIDVRGEVCPIPDVEAKRAVQSANDGEIILVRIDYPLSKERIPETVKKLGSEVLEIEEAAPGEWNIYIKVKK

Variants of: B1
Experiment: BLI; Octet buffer (20 mM Tris-HCl (pH 8.0), 300 mM NaCl, 0.1% (w/v) DDM, 1 mM β-ME); response at 120 s; parent: 1.8; read off a plot

How did the response turn out when chain 2 MANYQVSKEIDVRGEVAPIPDVEAKRAVQSANDGEIILVRIDYPLSKERIPETVKKLGSEVLEIEEAAPGEWNIYIKVKK was run?
Its response is about 0.14 nm.

With chain 2 MANYQVSKEIDVRGEVCPIPDVEAKRAVQSANDGEIILVRIAYPLSKERIPETVKKLGSEVLEIEEAAPGEWNIYIKVKK as the variant, how does the response read?
The response was about 0.04 nm.
